From US20130123350, “NUCLEIC ACID MOLECULE CAPABLE OF BINDING TO c-MET AND USE THEREOF” (KANAGAWA PREFECTURAL HOSPITAL ORGANIZATION, published 2013)

B1: g11 2'-F (ssRNA)
RNA: GGGACGCUCACGUACGCUAAGUUUAGGUGGCAUCGACCUUCAUGAAACGGGUGCACAGGCUCAGUGCCUGGACGUGCAGU
modifications: 2'-F on all C and U
B2: g19 2'-F (ssRNA)
RNA: GGGACGCUCACGUACGCUAAGUAGCCGUGAUUGGGUUGGCUGCCCACAAUUAUCCAGGACUCAGUGCCUGGACGUGCAGU
modifications: 2'-F on all C and U
B3: g12 2'-F (ssRNA)
RNA: GGGACGCUCACGUACGCUAACGCGGCCAUCCGGCGUUUGGAACGGGAUGUACACCUGACAUCAGUGCCUGGACGUGCAGU
modifications: 2'-F on all C and U
B4: g24 2'-F (ssRNA)
RNA: GGGACGCUCACGUACGCUAAGAGUUGUCGCACAGCGACUCGAAAAUAAUCUGUCCGACACUCAGUGCCUGGACGUGCAGU
modifications: 2'-F on all C and U
B5: g30 2'-F (ssRNA)
RNA: GGGACGCUCACGUACGCUAAAAAUUGCCGGGAUCUGGUGUGGCGACCAUGCGGCGUGCAUUCAGUGCCUGGACGUGCAGU
modifications: 2'-F on all C and U
B6: g9 2'-F (ssRNA)
RNA: GGGACGCUCACGUACGCUAAGAUGUCUCAAUUGGUCGUGAUUGUGCUGACCACACGAACCUCAGUGCCUGGACGUGCAGU
modifications: 2'-F on all C and U
B7: g23 2'-F (ssRNA)
RNA: GGGACGCUCACGUACGCUAAAUGGGAGUGCGCCUCGGCUCUAACGGAGGUAUGCACGUCAUCAGUGCCUGGACGUGCAGU
modifications: 2'-F on all C and U
B8: g26 2'-F (ssRNA)
RNA: GGGACGCUCACGUACGCUAAGCUCCACCAGGUGUAGCUAGCCUGUAGACAUCAGUAGCAUCAGUGCCUGGACGUGCAGU
modifications: 2'-F on all C and U
B9: g17 2'-F (ssRNA)
RNA: GGGACGCUCACGUACGCUAAAGUGAUGGCCGGCUGGAGAAACGGGCCACUCGAUCCAGGUCAGUGCCUGGACGUGCAGU
modifications: 2'-F on all C and U
B10: g15 2'-F (ssRNA)
RNA: GGGACGCUCACGUACGCUAAGACGCGGGCCACCGGCUAGCGACGGGUGGUAAAGGGCUUGUCAGUGCCUGGACGUGCAGU
modifications: 2'-F on all C and U
B11: g32 2'-F (ssRNA)
RNA: GGGACGCUCACGUACGCUAAACAAGACCGGGAUGGGGGUUGGUCACACACAAAGACUGAAUCAGUGCCUGGACGUGCAGU
modifications: 2'-F on all C and U
B12: g3 2'-F (ssRNA)
RNA: GGGACGCUCACGUACGCUAAGGGCGAAACUGUCGUGACACGGUUUGACAUGCCGGCCUUAUCAGUGCCUGGACGUGCAGU
modifications: 2'-F on all C and U
B13: g28 2'-F (ssRNA)
RNA: GGGACGCUCACGUACGCUAACCUGGGGGUUCCGCAGGAAUCGGGAACUAGAUUGGUGGUCUCAGUGCCUGGACGUGCAGU
modifications: 2'-F on all C and U
B14: g4 2'-F (ssRNA)
RNA: GGGACGCUCACGUACGCUAAUACCGUGAUUCGGGGUGGUAUCCGGUGGACAUCCAGGUCGUCAGUGCCUGGACGUGCAGU
modifications: 2'-F on all C and U
B15: g16 2'-F (ssRNA)
RNA: GGGACGCUCACGUACGCUAACCGCUACCGGGUGCAACGGGUAGACUGUAACCAGGUGAUAUCAGUGCCUGGACGUGCAGU
modifications: 2'-F on all C and U
B16: g1 2'-F (ssRNA)
RNA: GGGACGCUCACGUACGCUAAACACACUGAGAGUUUGACCAGCUAUUAAAUGGGUCGUGACUCAGUGCCUGGACGUGCAGU
modifications: 2'-F on all C and U
B17: g7 2'-F (ssRNA)
RNA: GGGACGCUCACGUACGCUAACUUGAAGUCAAGGGUAGAGUGACCAUGCAGCUCGUAGACAUCAGUGCCUGGACGUGCAGU
modifications: 2'-F on all C and U
B18: g2 2'-F (ssRNA)
RNA: GGGACGCUCACGUACGCUAAACCCUGGCGAUCUCCGGCCGGAUACGGGAGAACGAGGUACUCAGUGCCUGGACGUGCAGU
modifications: 2'-F on all C and U
B19: g10 2'-F (ssRNA)
RNA: GGGACGCUCACGUACGCUAAACACAGCUCUGAUGGUCGUGAUUAGGUUGACCACCUACCUUCAGUGCCUGGACGUGCAGU
modifications: 2'-F on all C and U
B20: g21 2'-F (ssRNA)
RNA: GGGACGCUCACGUACGCUAACCUUGGUGUCAUCCGACCAAAUUAGAACGGGAUGAGGAAGUCAGUGCCUGGACGUGCAGU
modifications: 2'-F on all C and U
B21: g20 2'-F (ssRNA)
RNA: GGGACGCUCACGUACGCUAAACGUUGUGGCGAACUUCGGCCCGAACGGGAGUAACUGCAUCAGUGCCUGGACGUGCAGU
modifications: 2'-F on all C and U
B22: g8 2'-F (ssRNA)
RNA: GGGACGCUCACGUACGCUAAGGGCACUUAAAACCAGACCGUGAUUUGCGGUUGGUCUCGCUCAGUGCCUGGACGUGCAGU
modifications: 2'-F on all C and U
B23: g6 2'-F (ssRNA)
RNA: GGGACGCUCACGUACGCUAAUCCAGGUGUGGCGAGCCACUGUAAGAGUCGCCGUGAGGAUUCAGUGCCUGGACGUGCAGU
modifications: 2'-F on all C and U
B24: g18 2'-F (ssRNA)
RNA: GGGACGCUCACGUACGCUAAGGCACCCUAUAGGAUUCAGCCCCUAACCCGGUGUUGUGAAUCAGUGCCUGGACGUGCAGU
modifications: 2'-F on all C and U
B25: g14 2'-F (ssRNA)
RNA: GGGACGCUCACGUACGCUAAUCAUCGGGACAUCGGAUGGAACGGGUGUCAAGAAGCGUGUUCAGUGCCUGGACGUGCAGU
modifications: 2'-F on all C and U
B26: g22 2'-F (ssRNA)
RNA: GGGACGCUCACGUACGCUAAGCGUGUUUCUUCAUUUCGACGCUGGCCAACGGAAAUGCAAUCAGUGCCUGGACGUGCAGU
modifications: 2'-F on all C and U
B27: g5 2'-F (ssRNA)
RNA: GGGACGCUCACGUACGCUAAGCCCAACGAACAUUUUGAGUUUCCAGGCAGCUCAUAGACAUCAGUGCCUGGACGUGCAGU
modifications: 2'-F on all C and U
B28: g27 2'-F (ssRNA)
RNA: GGGACGCUCACGUACGCUAACCUAUGCAGACCGACAUCCGGGUAUACGGGAUGAUGCGACUCAGUGCCUGGACGUGCAGU
modifications: 2'-F on all C and U
B29: g13 2'-F (ssRNA)
RNA: GGGACGCUCACGUACGCUAAUCACUCGGACAGCCGGAGCGAAACGGGCUGUGUAAGACUGUCAGUGCCUGGACGUGCAGU
modifications: 2'-F on all C and U
B30: g31 2'-F (ssRNA)
RNA: GGGACGCUCACGUACGCUAAAGAGUCUAUGCCGUGAGUGAGGGUGGCGCCUCGACUGCCAUCAGUGCCUGGACGUGCAGU
modifications: 2'-F on all C and U

Target: rec-cMet (Recombinant Human HGF R/c-MET/Fc Chimera) (Homo sapiens, UniProt P08581;P08581 SEQ:1-283,SEQ:1-625)
Assay: SPR; rec-cMet 60 nM
Conditions: tags: C-terminal HIEGRMD linker, human IgG Fc (100-330), 6xHis; R&D Systems; chain copies: 2 (inferred, Fc chimera)
Experimental: Using these truncated RNA aptamers, the binding ability thereof to the rec-cMet was examined. The binding ability was analyzed using BIACORE (registered trademark) X (GE Healthcare) in accordance with its instructions for use, with the concentration of the rec-cMet being set to 175 nmol/L. Also, the binding ability of each of the RNA aptamers g1 and g1-trA was examined in the same manner. As a comparative example, the 40N was used, and the binding ability thereof was examined in the same manner.
The binding ability of each of the RNA aptamers to the rec-cMet was examined in the same manner as in Example 5, except that the fluorinated RNA aptamers were used. The concentration of the rec-cMet was set to 60 nmol/L. With the time point at which the introduction of the rec-cMet to the chip was started being 0 seconds, introduction of a buffer was started 60 seconds later. As a comparative example, the same negative control as in Example 6 was used.

Sequence of rec-cMet (Recombinant Human HGF R/c-MET/Fc Chimera) (P08581 25-307, change not shown, chain 1 of 2): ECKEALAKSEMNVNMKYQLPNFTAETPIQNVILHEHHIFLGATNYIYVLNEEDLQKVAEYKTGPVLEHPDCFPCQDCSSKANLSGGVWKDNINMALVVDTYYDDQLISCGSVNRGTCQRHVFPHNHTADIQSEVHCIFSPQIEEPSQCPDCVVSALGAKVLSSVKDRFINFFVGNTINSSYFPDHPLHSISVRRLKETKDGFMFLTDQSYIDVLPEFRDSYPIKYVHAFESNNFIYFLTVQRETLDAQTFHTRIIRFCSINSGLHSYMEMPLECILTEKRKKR
Sequence of rec-cMet (Recombinant Human HGF R/c-MET/Fc Chimera) (P08581 308-932, change not shown, chain 2 of 2): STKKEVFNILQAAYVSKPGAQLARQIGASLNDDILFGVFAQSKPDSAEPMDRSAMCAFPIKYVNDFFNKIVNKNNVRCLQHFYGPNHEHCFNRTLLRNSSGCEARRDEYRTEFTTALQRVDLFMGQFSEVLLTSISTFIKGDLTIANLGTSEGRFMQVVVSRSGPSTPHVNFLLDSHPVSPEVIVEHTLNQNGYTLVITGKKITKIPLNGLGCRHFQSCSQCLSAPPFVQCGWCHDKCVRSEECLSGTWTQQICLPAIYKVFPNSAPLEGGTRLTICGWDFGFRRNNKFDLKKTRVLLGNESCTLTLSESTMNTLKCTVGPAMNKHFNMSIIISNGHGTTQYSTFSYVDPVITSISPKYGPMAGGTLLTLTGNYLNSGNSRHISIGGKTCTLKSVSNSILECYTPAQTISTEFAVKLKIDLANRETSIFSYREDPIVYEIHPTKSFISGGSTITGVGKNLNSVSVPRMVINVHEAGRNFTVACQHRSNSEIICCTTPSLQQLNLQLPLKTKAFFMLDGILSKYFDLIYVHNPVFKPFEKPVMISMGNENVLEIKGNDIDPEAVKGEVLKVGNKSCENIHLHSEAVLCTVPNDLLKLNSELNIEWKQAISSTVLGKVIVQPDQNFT

Row | Binder | binding result
1 | B1 | binds
2 | B2 | binds
3 | B3 | binds
4 | B4 | binds
5 | B5 | binds
6 | B6 | binds
7 | B7 | binds
8 | B8 | binds
9 | B9 | binds
10 | B10 | binds
11 | B11 | binds
12 | B12 | binds
13 | B13 | binds
14 | B14 | binds
15 | B15 | binds
16 | B16 | binds
17 | B17 | binds
18 | B18 | binds
19 | B19 | binds
20 | B20 | binds
21 | B21 | binds
22 | B22 | binds
23 | B23 | binds
24 | B24 | binds
25 | B25 | binds
26 | B26 | binds
27 | B27 | binds
28 | B28 | binds
29 | B29 | binds
30 | B30 | binds
